Reference: IntAct's records for PubMed 9418861

B1: Serine/threonine-protein kinase MRCK alpha (Homo sapiens), Q5VT25 (parent)
chain: MSGEVRLRQLEQFILDGPAQTNGQCFSVETLLDILICLYDECNNSPLRREKNILEYLEWAKPFTSKVKQMRLHREDFEILKVIGRGAFGEVAVVKLKNADKVFAMKILNKWEMLKRAETACFREERDVLVNGDNKWITTLHYAFQDDNNLYLVMDYYVGGDLLTLLSKFEDRLPEDMARFYLAEMVIAIDSVHQLHYVHRDIKPDNILMDMNGHIRLADFGSCLKLMEDGTVQSSVAVGTPDYISPEILQAMEDGKGRYGPECDWWSLGVCMYEMLYGETPFYAESLVETYGKIMNHKERFQFPAQVTDVSENAKDLIRRLICSREHRLGQNGIEDFKKHPFFSGIDWDNIRNCEAPYIPEVSSPTDTSNFDVDDDCLKNSETMPPPTHTAFSGHHLPFVGFTYTSSCVLSDRSCLRVTAGPTSLDLDVNVQRTLDNNLATEAYERRIKRLEQEKLELSRKLQESTQTVQALQYSTVDGPLTASKDLEIKNLKEEIEKLRKQVTESSHLEQQLEEANAVRQELDDAFRQIKAYEKQIKTLQQEREDLNKELVQASERLKNQSKELKDAHCQRKLAMQEFMEINERLTELHTQKQKLARHVRDKEEEVDLVMQKVESLRQELRRTERAKKELEVHTEALAAEASKDRKLREQSEHYSKQLENELEGLKQKQISYSPGVCSIEHQQEITKLKTDLEKKSIFYEEELSKREGIHANEIKNLKKELHDSEGQQLALNKEIMILKDKLEKTRRESQSEREEFESEFKQQYEREKVLLTEENKKLTSELDKLTTLYENLSIHNQQLEEEVKDLADKKESVAHWEAQITEIIQWVSDEKDARGYLQALASKMTEELEALRNSSLGTRATDMPWKMRRFAKLDMSARLELQSALDAEIRAKQAIQEELNKVKASNIITECKLKDSEKKNLELLSEIEQLIKDTEELRSEKGIEHQDSQHSFLAFLNTPTDALDQFERSPSCTPASKGRRTVDSTPLSVHTPTLRKKGCPGSTGFPPKRKTHQFFVKSFTTPTKCHQCTSLMVGLIRQGCSCEVCGFSCHITCVNKAPTTCPVPPEQTKGPLGIDPQKGIGTAYEGHVRIPKPAGVKKGWQRALAIVCDFKLFLYDIAEGKASQPSVVISQVIDMRDEEFSVSSVLASDVIHASRKDIPCIFRVTASQLSASNNKCSILMLADTENEKNKWVGVLSELHKILKKNKFRDRSVYVPKEAYDSTLPLIKTTQAAAIIDHERIALGNEEGLFVVHVTKDEIIRVGDNKKIHQIELIPNDQLVAVISGRNRHVRLFPMSALDGRETDFYKLSETKGCQTVTSGKVRHGALTCLCVAMKRQVLCYELFQSKTRHRKFKEIQVPYNVQWMAIFSEQLCVGFQSGFLRYPLNGEGNPYSMLHSNDHTLSFIAHQPMDAICAVEISSKEYLLCFNSIGIYTDCQGRRSRQQELMWPANPSSCCYNAPYLSVYSENAVDIFDVNSMEWIQTLPLKKVRPLNNEGSLNLLGLETIRLIYFKNKMAEGDELVVPETSDNSRKQMVRNINNKRRYSFRVPEEERMQQRREMLRDPEMRNKLISNPTNFNHIAHMGPGDGIQILKDLPMNPRPQESRTVFSGSVSIPSITKSRPEPGRSMSASSGLSARSSAQNGSALKREFSGGSYSAKRQPMPSPSEGSLSSGGMDQGSDAPARDFDGEDSDSPRHSTASNSSNLSSPPSPASPRKTKSLSLESTDRGSWDP

Variants of: B1
Settings: with cdc42_human CDC42, P60953
Sequence of cdc42_human CDC42, P60953 (P60953 whole entry, looked up): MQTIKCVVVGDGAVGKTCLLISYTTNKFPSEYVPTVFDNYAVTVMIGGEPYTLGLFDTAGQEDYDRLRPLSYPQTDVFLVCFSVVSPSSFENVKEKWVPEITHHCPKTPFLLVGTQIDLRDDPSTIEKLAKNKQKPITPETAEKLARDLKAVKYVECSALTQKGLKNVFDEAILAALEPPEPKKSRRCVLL

Variant | effect of a mutation on the interaction
H1579A | decreasing interaction
H1582A | decreasing interaction
